# Reference: the supplement of paper PMC10065799, “High-throughput profiling of sequence recognition by tyrosine kinases and SH2 domains using bacterial peptide display” (eLife, 2023)
# Target: Hck (UniProt P08631)
# Assay: phosphorylation enrichment, bacterial display (enrichment ratio); higher = better substrate or ligand; peptides without Tyr show the background
# 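Note: 11-residue human phosphosite peptides and single-mutation variants displayed on the E. coli surface, counted by deep sequencing, each peptide's frequency after selection divided by its frequency in the unselected input library; frequency after pTyr selection over input frequency; kinase dosed for 20-30% of maximal phosphorylation in three min.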
# Hck, sequence (P08631 whole entry, looked up): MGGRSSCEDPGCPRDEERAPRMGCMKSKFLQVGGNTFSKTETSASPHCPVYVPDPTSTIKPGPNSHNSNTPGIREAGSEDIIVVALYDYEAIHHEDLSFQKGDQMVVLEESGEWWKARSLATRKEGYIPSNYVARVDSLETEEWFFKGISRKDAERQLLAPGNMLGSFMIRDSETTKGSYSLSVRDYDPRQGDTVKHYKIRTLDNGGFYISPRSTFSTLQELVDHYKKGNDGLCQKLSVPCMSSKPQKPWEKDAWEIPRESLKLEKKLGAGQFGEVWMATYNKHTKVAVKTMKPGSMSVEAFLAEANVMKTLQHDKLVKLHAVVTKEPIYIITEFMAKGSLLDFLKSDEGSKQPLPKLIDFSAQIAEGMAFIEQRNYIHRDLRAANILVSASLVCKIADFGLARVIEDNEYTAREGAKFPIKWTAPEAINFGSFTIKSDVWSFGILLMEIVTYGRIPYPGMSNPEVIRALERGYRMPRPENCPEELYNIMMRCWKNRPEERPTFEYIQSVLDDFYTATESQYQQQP
row,Sequence,phosphorylation enrichment
1,TVDASYCGGRG [ANTXR2_Y380_Y381C],0.436
2,RRNSPYSQTMK [TET2_Y819],0.913
3,EAEPFYRSLRD [NPHS1_Y1139_YF],0.644
4,GIVEDYRPRFY [ACVRL1_Y421_P424R],0.537
5,YIATQYSLCPR [LBR_Y166_R169C],0.719
6,KDFTKYVAFIE [KDM4B_Y31_N29T_YF],0.462
7,REHTVYGEPRK [MAGEA4_Y240],0.903
8,GQDLFYEDEDL [PACS1_Y303],0.737
9,DFFDLYGGKKF [PTPN11_Y66_E69K_YF],7.26
10,STLEVYSCHPP [IL21R_Y317],1.27
11,MHDKEYYSVHN [MET_Y1234_Y1230H],0.459
12,RQRTAYFSLDT [CDH1_Y68],0.357
13,AVEDQYYRVDC [FHL1_Y207_C209R],0.908
14,GVTLLCYGRYN [ADGRD1_Y85_Y85C],0.508
15,LRNIDYHRLDG [ATRX_Y2083_Y2084H],0.33
16,LTRDIYKNDYY [ROS1_Y2110_A2106T],1.48
17,CHRQLYHKCTH [F12_Y58_Y53C],0.471

row,Sequence,phosphorylation enrichment
1,VRLTEYPCAGL,0.428
2,GPKSTYISSAA [GOLGA5_Y62],0.492
3,VAMELYVFRGV [GAN_Y471_G474R],0.651
4,GESLTYVSTTF [C1orf162_Y120_A121V],0.621
5,RIVTTYIRERE [DNM2_Y463],0.874
6,RNVYYYSYLLK [PTEN_Y178_Y174N],5.15
7,VLTSTYRGGGG [HBA1_Y141_K140T],0.377
8,KIFPEYLSNWT [AIFM1_Y347_L344F],0.488
9,SEASYYKSLNL [NGEF_Y289],0.643
10,QGCSIYKDFFR [PLA2G2D_Y82_YF],1.86
11,GDGRFYMMEAI [PGM1_Y66_K68M],0.459
12,HMRLRYLAAEE [CEP120_Y884_Q879H],0.53
13,TIMTNYNPNFC [ALK_Y1092_D1091N_YF],0.5
14,DFTSRYLSASD [PKHD1_Y828_N830S],0.453
15,VQVAFYTMMMN [SPATA17_Y84_YF],0.769
16,DKANRYFSPNV [PTEN_Y336_F341V],0.376

# Target: Jak2 (UniProt O60674)
# Assay: as above
# Jak2, sequence (O60674 whole entry, looked up): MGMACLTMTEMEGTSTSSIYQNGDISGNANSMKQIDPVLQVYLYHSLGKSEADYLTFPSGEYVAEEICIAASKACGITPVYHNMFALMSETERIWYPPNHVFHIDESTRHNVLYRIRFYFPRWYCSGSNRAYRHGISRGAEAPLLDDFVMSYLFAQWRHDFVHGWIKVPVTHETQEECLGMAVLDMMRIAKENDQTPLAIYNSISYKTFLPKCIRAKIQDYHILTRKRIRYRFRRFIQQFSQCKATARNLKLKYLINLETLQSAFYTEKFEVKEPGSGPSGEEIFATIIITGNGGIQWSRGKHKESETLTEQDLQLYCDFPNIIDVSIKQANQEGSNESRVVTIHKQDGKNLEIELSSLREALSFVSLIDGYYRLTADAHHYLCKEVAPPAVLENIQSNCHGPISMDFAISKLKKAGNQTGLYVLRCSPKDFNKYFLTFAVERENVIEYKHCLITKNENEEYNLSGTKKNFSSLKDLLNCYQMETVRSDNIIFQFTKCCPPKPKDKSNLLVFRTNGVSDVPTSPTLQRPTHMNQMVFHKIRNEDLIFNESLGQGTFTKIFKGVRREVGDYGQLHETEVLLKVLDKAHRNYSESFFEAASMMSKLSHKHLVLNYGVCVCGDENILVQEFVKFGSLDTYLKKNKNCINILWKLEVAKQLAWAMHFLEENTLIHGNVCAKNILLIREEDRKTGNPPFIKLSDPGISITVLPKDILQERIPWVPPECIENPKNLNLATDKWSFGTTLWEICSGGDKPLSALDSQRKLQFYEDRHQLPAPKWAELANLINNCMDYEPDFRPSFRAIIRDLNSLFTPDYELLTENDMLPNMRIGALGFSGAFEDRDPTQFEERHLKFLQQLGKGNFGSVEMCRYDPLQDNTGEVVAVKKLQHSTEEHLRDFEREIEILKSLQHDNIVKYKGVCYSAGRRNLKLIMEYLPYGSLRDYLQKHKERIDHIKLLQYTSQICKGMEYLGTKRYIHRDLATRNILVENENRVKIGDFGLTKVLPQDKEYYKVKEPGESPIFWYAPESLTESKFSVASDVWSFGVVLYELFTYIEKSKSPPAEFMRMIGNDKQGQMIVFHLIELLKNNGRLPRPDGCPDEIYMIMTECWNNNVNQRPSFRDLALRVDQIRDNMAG
row,Sequence,phosphorylation enrichment
1,TVDASYCGGRG [ANTXR2_Y380_Y381C],0.558
2,RRNSPYSQTMK [TET2_Y819],1.84
3,EAEPFYRSLRD [NPHS1_Y1139_YF],0.893
4,GIVEDYRPRFY [ACVRL1_Y421_P424R],0.619
5,YIATQYSLCPR [LBR_Y166_R169C],0.873
6,KDFTKYVAFIE [KDM4B_Y31_N29T_YF],0.879
7,REHTVYGEPRK [MAGEA4_Y240],0.674
8,GQDLFYEDEDL [PACS1_Y303],1.43
9,DFFDLYGGKKF [PTPN11_Y66_E69K_YF],0.974
10,STLEVYSCHPP [IL21R_Y317],1.38
11,MHDKEYYSVHN [MET_Y1234_Y1230H],0.807
12,RQRTAYFSLDT [CDH1_Y68],0.691
13,AVEDQYYRVDC [FHL1_Y207_C209R],1.87
14,GVTLLCYGRYN [ADGRD1_Y85_Y85C],1.23
15,LRNIDYHRLDG [ATRX_Y2083_Y2084H],0.632
16,LTRDIYKNDYY [ROS1_Y2110_A2106T],2.28
17,CHRQLYHKCTH [F12_Y58_Y53C],0.667

row,Sequence,phosphorylation enrichment
1,VRLTEYPCAGL,0.673
2,GPKSTYISSAA [GOLGA5_Y62],0.638
3,VAMELYVFRGV [GAN_Y471_G474R],1.09
4,GESLTYVSTTF [C1orf162_Y120_A121V],0.691
5,RIVTTYIRERE [DNM2_Y463],0.795
6,RNVYYYSYLLK [PTEN_Y178_Y174N],8.72
7,VLTSTYRGGGG [HBA1_Y141_K140T],0.509
8,KIFPEYLSNWT [AIFM1_Y347_L344F],1.18
9,SEASYYKSLNL [NGEF_Y289],1.1
10,QGCSIYKDFFR [PLA2G2D_Y82_YF],2.25
11,GDGRFYMMEAI [PGM1_Y66_K68M],1.16
12,HMRLRYLAAEE [CEP120_Y884_Q879H],1.03
13,TIMTNYNPNFC [ALK_Y1092_D1091N_YF],0.865
14,DFTSRYLSASD [PKHD1_Y828_N830S],0.625
15,VQVAFYTMMMN [SPATA17_Y84_YF],1.6
16,DKANRYFSPNV [PTEN_Y336_F341V],0.412

# Target: MERTK (UniProt Q12866)
# Assay: as above
# MERTK, sequence (Q12866 whole entry, looked up): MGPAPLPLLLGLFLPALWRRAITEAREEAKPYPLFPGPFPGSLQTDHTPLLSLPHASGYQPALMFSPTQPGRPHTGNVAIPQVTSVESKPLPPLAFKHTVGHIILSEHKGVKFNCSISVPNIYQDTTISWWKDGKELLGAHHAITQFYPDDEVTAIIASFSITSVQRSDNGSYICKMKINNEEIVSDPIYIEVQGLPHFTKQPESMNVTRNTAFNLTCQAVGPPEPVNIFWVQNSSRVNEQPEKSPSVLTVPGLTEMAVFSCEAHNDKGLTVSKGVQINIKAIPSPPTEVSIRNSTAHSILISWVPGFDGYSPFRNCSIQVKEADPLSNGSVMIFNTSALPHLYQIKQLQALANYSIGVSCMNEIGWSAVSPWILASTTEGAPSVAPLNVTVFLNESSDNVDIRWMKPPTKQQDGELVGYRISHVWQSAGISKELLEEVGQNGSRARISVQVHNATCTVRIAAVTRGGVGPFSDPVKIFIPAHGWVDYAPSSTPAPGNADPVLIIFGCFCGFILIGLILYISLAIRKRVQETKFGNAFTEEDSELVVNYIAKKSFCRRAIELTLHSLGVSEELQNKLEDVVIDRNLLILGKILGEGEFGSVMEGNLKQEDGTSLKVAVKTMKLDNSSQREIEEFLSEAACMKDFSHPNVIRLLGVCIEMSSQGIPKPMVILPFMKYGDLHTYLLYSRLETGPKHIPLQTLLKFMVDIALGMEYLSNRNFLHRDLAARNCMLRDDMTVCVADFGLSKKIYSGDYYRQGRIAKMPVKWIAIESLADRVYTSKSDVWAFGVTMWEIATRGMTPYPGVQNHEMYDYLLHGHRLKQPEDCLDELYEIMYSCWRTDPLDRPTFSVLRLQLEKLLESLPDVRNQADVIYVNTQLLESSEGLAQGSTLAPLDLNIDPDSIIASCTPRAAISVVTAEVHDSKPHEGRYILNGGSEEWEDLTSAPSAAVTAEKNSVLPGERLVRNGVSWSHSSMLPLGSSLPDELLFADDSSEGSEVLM
row,Sequence,phosphorylation enrichment
1,TVDASYCGGRG [ANTXR2_Y380_Y381C],0.452
2,RRNSPYSQTMK [TET2_Y819],0.813
3,EAEPFYRSLRD [NPHS1_Y1139_YF],0.539
4,GIVEDYRPRFY [ACVRL1_Y421_P424R],0.674
5,YIATQYSLCPR [LBR_Y166_R169C],1.75
6,KDFTKYVAFIE [KDM4B_Y31_N29T_YF],0.481
7,REHTVYGEPRK [MAGEA4_Y240],0.492
8,GQDLFYEDEDL [PACS1_Y303],0.746
9,DFFDLYGGKKF [PTPN11_Y66_E69K_YF],0.489
10,STLEVYSCHPP [IL21R_Y317],0.774
11,MHDKEYYSVHN [MET_Y1234_Y1230H],0.496
12,RQRTAYFSLDT [CDH1_Y68],0.535
13,AVEDQYYRVDC [FHL1_Y207_C209R],0.622
14,GVTLLCYGRYN [ADGRD1_Y85_Y85C],0.397
15,LRNIDYHRLDG [ATRX_Y2083_Y2084H],0.379
16,LTRDIYKNDYY [ROS1_Y2110_A2106T],0.839
17,CHRQLYHKCTH [F12_Y58_Y53C],0.543

row,Sequence,phosphorylation enrichment
1,VRLTEYPCAGL,0.367
2,GPKSTYISSAA [GOLGA5_Y62],0.565
3,VAMELYVFRGV [GAN_Y471_G474R],0.684
4,GESLTYVSTTF [C1orf162_Y120_A121V],0.538
5,RIVTTYIRERE [DNM2_Y463],0.758
6,RNVYYYSYLLK [PTEN_Y178_Y174N],11.5
7,VLTSTYRGGGG [HBA1_Y141_K140T],0.367
8,KIFPEYLSNWT [AIFM1_Y347_L344F],0.47
9,SEASYYKSLNL [NGEF_Y289],0.659
10,QGCSIYKDFFR [PLA2G2D_Y82_YF],0.998
11,GDGRFYMMEAI [PGM1_Y66_K68M],0.46
12,HMRLRYLAAEE [CEP120_Y884_Q879H],0.452
13,TIMTNYNPNFC [ALK_Y1092_D1091N_YF],0.485
14,DFTSRYLSASD [PKHD1_Y828_N830S],0.46
15,VQVAFYTMMMN [SPATA17_Y84_YF],3.02
16,DKANRYFSPNV [PTEN_Y336_F341V],0.354

# Tested on: c-Abl (mouse)
# Assay: as above
row,Sequence,phosphorylation enrichment
1,TVDASYCGGRG [ANTXR2_Y380_Y381C],0.465
2,RRNSPYSQTMK [TET2_Y819],1.81
3,EAEPFYRSLRD [NPHS1_Y1139_YF],0.743
4,GIVEDYRPRFY [ACVRL1_Y421_P424R],0.585
5,YIATQYSLCPR [LBR_Y166_R169C],0.716
6,KDFTKYVAFIE [KDM4B_Y31_N29T_YF],0.614
7,REHTVYGEPRK [MAGEA4_Y240],1.03
8,GQDLFYEDEDL [PACS1_Y303],0.839
9,DFFDLYGGKKF [PTPN11_Y66_E69K_YF],0.69
10,STLEVYSCHPP [IL21R_Y317],1.31
11,MHDKEYYSVHN [MET_Y1234_Y1230H],0.479
12,RQRTAYFSLDT [CDH1_Y68],0.752
13,AVEDQYYRVDC [FHL1_Y207_C209R],0.844
14,GVTLLCYGRYN [ADGRD1_Y85_Y85C],0.975
15,LRNIDYHRLDG [ATRX_Y2083_Y2084H],0.521
16,LTRDIYKNDYY [ROS1_Y2110_A2106T],1.21
17,CHRQLYHKCTH [F12_Y58_Y53C],0.599

row,Sequence,phosphorylation enrichment
1,VRLTEYPCAGL,0.527
2,GPKSTYISSAA [GOLGA5_Y62],0.488
3,VAMELYVFRGV [GAN_Y471_G474R],0.935
4,GESLTYVSTTF [C1orf162_Y120_A121V],0.494
5,RIVTTYIRERE [DNM2_Y463],0.741
6,RNVYYYSYLLK [PTEN_Y178_Y174N],9.24
7,VLTSTYRGGGG [HBA1_Y141_K140T],0.425
8,KIFPEYLSNWT [AIFM1_Y347_L344F],0.657
9,SEASYYKSLNL [NGEF_Y289],0.615
10,QGCSIYKDFFR [PLA2G2D_Y82_YF],2.14
11,GDGRFYMMEAI [PGM1_Y66_K68M],0.735
12,HMRLRYLAAEE [CEP120_Y884_Q879H],1.3
13,TIMTNYNPNFC [ALK_Y1092_D1091N_YF],0.716
14,DFTSRYLSASD [PKHD1_Y828_N830S],0.546
15,VQVAFYTMMMN [SPATA17_Y84_YF],1.03
16,DKANRYFSPNV [PTEN_Y336_F341V],0.486
